Here are results for seven substances from publication PMC3221699.

Read-outs that look alike come from different tables or passages of the source.

The target in assay [1] is IL-10R1 (Homo sapiens) (UniProt Q13651). Particulars: cited from earlier work.
For assay [2] the target is unchanged. Particulars: cited from earlier work. This is another data set of the same source.
The target of assay [3] is IL-10R1-FC fusion protein (human IL-10R1 extracellular region fused to mouse IgG2a FC) (human) (UniProt Q13651). As to the kind of experiment: SPR; Biacore T200, 20 °C, HBS (10 mM Hepes pH 7.4, 0.15 M NaCl, 0.1% P20, 0.1 mg/mL BSA); IL-10R1-FC captured (~75 RU) by anti-murine FC antibody on a CM5 chip; RhCMVIL-10 (0-100 nM) or M1/M2 (100, 500, 1000 nM) injected at 75 µL/min; global fit to a bivalent analyte model (Rmax, and tc for M1, fixed for the mutants); KD2 called apparent. (In general: In SPR one partner is held on a chip, and binding of the other changes the refractive index at the surface.)

For assay [4], the target named is human IL-10R1 chain coupled to agarose beads (human) (UniProt Q13651).
The target of assay [5] is Rhesus cytomegalovirus IL-10 (RhCMVIL-10), wild type (rhesus cytomegalovirus (RhCMV) strain 68-1). As to the kind of experiment: SEC; 24 mL Superdex 200 gel filtration column; elution position of affinity purified RhCMVIL-10 compared with cIL-10; fractions analysed by SDS-PAGE.

Chain of cIL-10 (P22301 19-178): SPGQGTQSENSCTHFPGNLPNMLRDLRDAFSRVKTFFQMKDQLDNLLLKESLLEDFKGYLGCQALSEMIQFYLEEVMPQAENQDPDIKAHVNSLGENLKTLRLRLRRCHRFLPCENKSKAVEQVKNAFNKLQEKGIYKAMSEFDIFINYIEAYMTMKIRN

Broadly, the Kd is the free concentration of one partner at which half of the binding sites on the other are occupied at equilibrium, for simple one-to-one binding. CMVIL-10 (from UniProt P17150): the Kd in assay [1] was 1 nM.
cIL-10 (from UniProt P22301): in assay [2], the Kd is 1 nM.
With “RhCMVIL-10 mutant 2 (M2; Glu-142Gln, Asp-144His), RhCMVIL-10-FXaH6 (ligand)”, in assay [3], the KD1 (bivalent analyte model, kd1/ka1) came to 14.7 µM; the KD2 (bivalent analyte model, apparent, kd2/ka1) was 94.4 nM; the Rm-obs (maximum RU observed at the highest concentration, 1000 nM) was found to be 3 RU; the ka1 (bivalent analyte model, first step) came out at 14500 M⁻¹ s⁻¹. Besides, in assay [3], the ka2 (bivalent analyte model, second step) was 0.000548 1/RUs; the kd1 (bivalent analyte model, first step) is 0.212 s⁻¹; the kd2 (bivalent analyte model, second step) turned out to be 0.00136 s⁻¹.
In assay [4], H6FXa-RhCMVIL-10 Gln-38Arg (ligand) had a proliferation of TF-1/IL-10R1 cells, EC50 relative to RhCMVIL-10 and cIL-10; considerable activity retained at 1,000 ng/ml of 100 fold.
Same read-out and setting: under H6FXa-RhCMVIL-10 Asp-144His (ligand) stands 300 fold.
As usually defined, the stoichiometry N is a count of units in the complex or per binding partner. In assay [5], “Rhesus cytomegalovirus IL-10 (RhCMVIL-10), wild type (ligand)” gave a stoichiometry N of 2. For the same substance, in assay [3], the KD1 (bivalent analyte model, kd1/ka1) was found to be 0.0651 µM; the KD2 (bivalent analyte model, apparent, kd2/ka1) is 1.3 nM; the Rm-obs (maximum RU observed at the highest concentration, 100 nM) was 20.9 RU; the ka1 (bivalent analyte model, first step) came to 1.18e+06 M⁻¹ s⁻¹. Further, in assay [3], the ka2 (bivalent analyte model, second step) was 0.00105 1/RUs; the kd1 (bivalent analyte model, first step) stood at 0.0767 s⁻¹; the kd2 (bivalent analyte model, second step) was found to be 0.00155 s⁻¹.
As for “RhCMVIL-10 mutant 1 (M1; Gln-38Arg, Asp-144His), RhCMVIL-10-FXaH6 (ligand)”, in assay [3], the KD1 (bivalent analyte model, kd1/ka1) turned out to be 43 µM; the KD2 (bivalent analyte model, apparent, kd2/ka1) came to 410 nM; the Rm-obs (maximum RU observed at the highest concentration, 1000 nM) was 0.8 RU; the ka1 (bivalent analyte model, first step) was 4620 M⁻¹ s⁻¹. In addition, in assay [3], the ka2 (bivalent analyte model, second step) is 0.000232 1/RUs; the kd1 (bivalent analyte model, first step) was found to be 0.199 s⁻¹; the kd2 (bivalent analyte model, second step) was found to be 0.00187 s⁻¹.
